Results from US20260285997 (published 2026).
Where “and” joins values, the source holds several entries; their conditions need not be identical. Equal values may be shown once.

T1: CD206 (human, UniProt P22897)
T1 chain: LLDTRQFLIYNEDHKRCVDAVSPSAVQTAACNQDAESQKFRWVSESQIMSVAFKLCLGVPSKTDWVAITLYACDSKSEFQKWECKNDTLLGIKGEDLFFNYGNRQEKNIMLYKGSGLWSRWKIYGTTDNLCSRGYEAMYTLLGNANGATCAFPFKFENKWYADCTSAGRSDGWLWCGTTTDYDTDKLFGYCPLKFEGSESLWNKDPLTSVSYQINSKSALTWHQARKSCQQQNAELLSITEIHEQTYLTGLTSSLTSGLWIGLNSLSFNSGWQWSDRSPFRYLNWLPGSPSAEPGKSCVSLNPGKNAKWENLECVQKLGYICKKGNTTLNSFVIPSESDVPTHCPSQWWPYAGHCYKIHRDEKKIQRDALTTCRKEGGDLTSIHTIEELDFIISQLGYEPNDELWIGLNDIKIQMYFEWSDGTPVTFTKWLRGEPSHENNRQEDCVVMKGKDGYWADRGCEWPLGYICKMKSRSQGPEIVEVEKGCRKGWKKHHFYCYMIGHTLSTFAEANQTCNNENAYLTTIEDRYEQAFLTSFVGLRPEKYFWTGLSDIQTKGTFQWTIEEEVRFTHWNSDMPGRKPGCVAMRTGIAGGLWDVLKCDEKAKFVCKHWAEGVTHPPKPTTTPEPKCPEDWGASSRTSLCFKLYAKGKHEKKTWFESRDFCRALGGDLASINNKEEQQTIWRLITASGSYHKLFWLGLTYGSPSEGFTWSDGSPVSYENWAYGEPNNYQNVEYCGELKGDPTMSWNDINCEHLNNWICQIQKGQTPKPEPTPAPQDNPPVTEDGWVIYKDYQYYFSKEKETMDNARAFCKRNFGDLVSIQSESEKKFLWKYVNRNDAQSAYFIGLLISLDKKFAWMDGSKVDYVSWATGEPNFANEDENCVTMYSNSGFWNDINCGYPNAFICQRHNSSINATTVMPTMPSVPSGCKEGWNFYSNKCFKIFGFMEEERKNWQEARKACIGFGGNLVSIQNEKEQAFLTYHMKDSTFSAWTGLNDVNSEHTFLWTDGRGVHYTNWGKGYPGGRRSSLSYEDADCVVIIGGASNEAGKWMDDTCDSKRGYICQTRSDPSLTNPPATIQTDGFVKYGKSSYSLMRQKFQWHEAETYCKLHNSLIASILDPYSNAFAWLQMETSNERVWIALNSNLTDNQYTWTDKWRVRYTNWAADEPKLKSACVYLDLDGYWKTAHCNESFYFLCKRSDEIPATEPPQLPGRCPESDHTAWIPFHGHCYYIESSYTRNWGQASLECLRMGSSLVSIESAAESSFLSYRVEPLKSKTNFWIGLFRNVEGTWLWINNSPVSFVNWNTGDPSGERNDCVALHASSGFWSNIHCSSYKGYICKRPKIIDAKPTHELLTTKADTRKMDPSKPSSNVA


Tests used:
CD40 = CD40 (human, UniProt P25942); test: SPR
CD206 = target: T1, CD206; test: SPR

CD40, sequence (P25942 21-193): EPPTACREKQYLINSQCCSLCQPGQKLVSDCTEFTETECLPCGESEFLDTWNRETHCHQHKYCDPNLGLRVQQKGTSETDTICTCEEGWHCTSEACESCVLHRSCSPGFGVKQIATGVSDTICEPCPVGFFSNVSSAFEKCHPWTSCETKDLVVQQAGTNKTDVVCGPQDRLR

Binder | Kd (CD40) | Kd (CD206)
BEAT 1a1 CD40 arm (antibody, V domains shown) VH: not shown VL: DIQMTQSPSSVSASVGDRVTITCRASQGIYSWLAWYQQKPGKAPNLLIYTASTLQSGVPSRFSGSGSGTDFTLTISSLQPEDFATYYCQQANIFPLTFGGGTKVEIK | 0.574 nM and 0.572 nM and 0.585 nM | 
BEAT 1b2 CD40 arm (antibody, V domains shown) VH: not shown VL: DIQMTQSPSSVSASVGDRVTITCRASQGIYSWLAWYQQKPGKAPNLLIYTASTLQSGVPSRFSGSGSGTDFTLTISSLQPEDFATYYCQQANIFPLTFGGGTKVEIK | 0.444 nM and 0.295 nM | 
BEAT 1a2 CD40 arm (antibody, V domains shown) VH: not shown VL: DIQMTQSPSSVSASVGDRVTITCRASQGIYSWLAWYQQKPGKAPNLLIYTASTLQSGVPSRFSGSGSGTDFTLTISSLQPEDFATYYCQQANIFPLTFGGGTKVEIK | 0.471 nM and 0.534 nM | 
BEAT 1b1 CD40 arm (antibody, V domains shown) VH: not shown VL: DIQMTQSPSSVSASVGDRVTITCRASQGIYSWLAWYQQKPGKAPNLLIYTASTLQSGVPSRFSGSGSGTDFTLTISSLQPEDFATYYCQQANIFPLTFGGGTKVEIK | 0.379 nM and 0.62 nM | 
BEAT 1a6 CD40 arm (antibody, V domains shown) VH: not shown VL: DIQMTQSPSSVSASVGDRVTITCRASQGIYSWLAWYQQKPGKAPNLLIYTASTLQSGVPSRFSGSGSGTDFTLTISSLQPEDFATYYCQQANIFPLTFGGGTKVEIK | 0.371 nM and 0.394 nM | 
BEAT 1a4 CD40 arm (antibody, V domains shown) VH: not shown VL: DIQMTQSPSSVSASVGDRVTITCRASQGIYSWLAWYQQKPGKAPNLLIYTASTLQSGVPSRFSGSGSGTDFTLTISSLQPEDFATYYCQQANIFPLTFGGGTKVEIK | 0.444 nM and 0.391 nM and 0.467 nM | 
BEAT 1b4 CD40 arm (antibody, V domains shown) VH: not shown VL: DIQMTQSPSSVSASVGDRVTITCRASQGIYSWLAWYQQKPGKAPNLLIYTASTLQSGVPSRFSGSGSGTDFTLTISSLQPEDFATYYCQQANIFPLTFGGGTKVEIK | 0.487 nM and 0.496 nM | 
anti-CD40 IgG2 (antibody, V domains shown) VH: not shown VL: DIQMTQSPSSVSASVGDRVTITCRASQGIYSWLAWYQQKPGKAPNLLIYTASTLQSGVPSRFSGSGSGTDFTLTISSLQPEDFATYYCQQANIFPLTFGGGTKVEIK | 0.535 nM and 0.7 nM | 
BEAT 1a3 CD40 arm (antibody, V domains shown) VH: not shown VL: DIQMTQSPSSVSASVGDRVTITCRASQGIYSWLAWYQQKPGKAPNLLIYTASTLQSGVPSRFSGSGSGTDFTLTISSLQPEDFATYYCQQANIFPLTFGGGTKVEIK | 0.957 nM and 0.975 nM | 
BEAT 1a5 CD40 arm (antibody, V domains shown) VH: not shown VL: DIQMTQSPSSVSASVGDRVTITCRASQGIYSWLAWYQQKPGKAPNLLIYTASTLQSGVPSRFSGSGSGTDFTLTISSLQPEDFATYYCQQANIFPLTFGGGTKVEIK | 0.988 nM and 0.986 nM | 
BEAT 2b1 CD206 arm (antibody, V domains shown) VH: EVQLVQSGAEVKKPGESLRISCKGSGDSFTTYWIGWVRQMPGKGLEWMGIIYPGDSDTIYSPSFQGQVTISADKSISTAYLQWSSLKASDTAMYYCTRGDRGVDYWGQGTLVTVSS VL: DIQMTQSPSSLSASVGDRVTITCRASQGISRWLAWYQQKPEKAPKSLIYAASSLQSGVPSRFSGSGSGTDFTLTISGLQPEDFATYYCQQYNSYPRTFGQGTKVEIK |  | 27.8 nM and 47 nM
BEAT 2a8 CD206 arm (antibody, V domains shown) VH: EVQLVQSGAEVKKPGESLRISCKGSGDSFTTYWIGWVRQMPGKGLEWMGIIYPGDSDTIYSPSFQGQVTISADKSISTAYLQWSSLKASDTAMYYCTRGDRGVDYWGQGTLVTVSS VL: DIQMTQSPSSLSASVGDRVTITCRASQGISRWLAWYQQKPEKAPKSLIYAASSLQSGVPSRFSGSGSGTDFTLTISGLQPEDFATYYCQQYNSYPRTFGQGTKVEIK |  | 15.8 nM and 15.6 nM
BEAT 2a4 CD206 arm (antibody, V domains shown) VH: EVQLVQSGAEVKKPGESLRISCKGSGDSFTTYWIGWVRQMPGKGLEWMGIIYPGDSDTIYSPSFQGQVTISADKSISTAYLQWSSLKASDTAMYYCTRGDRGVDYWGQGTLVTVSS VL: DIQMTQSPSSLSASVGDRVTITCRASQGISRWLAWYQQKPEKAPKSLIYAASSLQSGVPSRFSGSGSGTDFTLTISGLQPEDFATYYCQQYNSYPRTFGQGTKVEIK |  | 10.3 nM and 11.9 nM
BEAT 2b4 CD206 arm (antibody, V domains shown) VH: EVQLVQSGAEVKKPGESLRISCKGSGDSFTTYWIGWVRQMPGKGLEWMGIIYPGDSDTIYSPSFQGQVTISADKSISTAYLQWSSLKASDTAMYYCTRGDRGVDYWGQGTLVTVSS VL: DIQMTQSPSSLSASVGDRVTITCRASQGISRWLAWYQQKPEKAPKSLIYAASSLQSGVPSRFSGSGSGTDFTLTISGLQPEDFATYYCQQYNSYPRTFGQGTKVEIK |  | 14 nM and 12.4 nM
BEAT 2a3 CD206 arm (antibody, V domains shown) VH: EVQLVQSGAEVKKPGESLRISCKGSGDSFTTYWIGWVRQMPGKGLEWMGIIYPGDSDTIYSPSFQGQVTISADKSISTAYLQWSSLKASDTAMYYCTRGDRGVDYWGQGTLVTVSS VL: DIQMTQSPSSLSASVGDRVTITCRASQGISRWLAWYQQKPEKAPKSLIYAASSLQSGVPSRFSGSGSGTDFTLTISGLQPEDFATYYCQQYNSYPRTFGQGTKVEIK |  | 22.2 nM and 23.6 nM
BEAT 2a6 CD206 arm (antibody, V domains shown) VH: EVQLVQSGAEVKKPGESLRISCKGSGDSFTTYWIGWVRQMPGKGLEWMGIIYPGDSDTIYSPSFQGQVTISADKSISTAYLQWSSLKASDTAMYYCTRGDRGVDYWGQGTLVTVSS VL: DIQMTQSPSSLSASVGDRVTITCRASQGISRWLAWYQQKPEKAPKSLIYAASSLQSGVPSRFSGSGSGTDFTLTISGLQPEDFATYYCQQYNSYPRTFGQGTKVEIK |  | 10.3 nM and 10.4 nM
BEAT 2a2 CD206 arm (antibody, V domains shown) VH: EVQLVQSGAEVKKPGESLRISCKGSGDSFTTYWIGWVRQMPGKGLEWMGIIYPGDSDTIYSPSFQGQVTISADKSISTAYLQWSSLKASDTAMYYCTRGDRGVDYWGQGTLVTVSS VL: DIQMTQSPSSLSASVGDRVTITCRASQGISRWLAWYQQKPEKAPKSLIYAASSLQSGVPSRFSGSGSGTDFTLTISGLQPEDFATYYCQQYNSYPRTFGQGTKVEIK |  | 11.8 nM and 9.48 nM
BEAT 2b3 CD206 arm (antibody, V domains shown) VH: EVQLVQSGAEVKKPGESLRISCKGSGDSFTTYWIGWVRQMPGKGLEWMGIIYPGDSDTIYSPSFQGQVTISADKSISTAYLQWSSLKASDTAMYYCTRGDRGVDYWGQGTLVTVSS VL: DIQMTQSPSSLSASVGDRVTITCRASQGISRWLAWYQQKPEKAPKSLIYAASSLQSGVPSRFSGSGSGTDFTLTISGLQPEDFATYYCQQYNSYPRTFGQGTKVEIK |  | 20.1 nM and 21.3 nM
BEAT 2a7 CD206 arm (antibody, V domains shown) VH: EVQLVQSGAEVKKPGESLRISCKGSGDSFTTYWIGWVRQMPGKGLEWMGIIYPGDSDTIYSPSFQGQVTISADKSISTAYLQWSSLKASDTAMYYCTRGDRGVDYWGQGTLVTVSS VL: DIQMTQSPSSLSASVGDRVTITCRASQGISRWLAWYQQKPEKAPKSLIYAASSLQSGVPSRFSGSGSGTDFTLTISGLQPEDFATYYCQQYNSYPRTFGQGTKVEIK |  | 15.9 nM and 14.3 nM
BEAT 2b2 CD206 arm (antibody, V domains shown) VH: EVQLVQSGAEVKKPGESLRISCKGSGDSFTTYWIGWVRQMPGKGLEWMGIIYPGDSDTIYSPSFQGQVTISADKSISTAYLQWSSLKASDTAMYYCTRGDRGVDYWGQGTLVTVSS VL: DIQMTQSPSSLSASVGDRVTITCRASQGISRWLAWYQQKPEKAPKSLIYAASSLQSGVPSRFSGSGSGTDFTLTISGLQPEDFATYYCQQYNSYPRTFGQGTKVEIK |  | 12.7 nM and 13.4 nM
anti-CD206 IgG1 (antibody, V domains shown) VH: EVQLVQSGAEVKKPGESLRISCKGSGDSFTTYWIGWVRQMPGKGLEWMGIIYPGDSDTIYSPSFQGQVTISADKSISTAYLQWSSLKASDTAMYYCTRGDRGVDYWGQGTLVTVSS VL: DIQMTQSPSSLSASVGDRVTITCRASQGISRWLAWYQQKPEKAPKSLIYAASSLQSGVPSRFSGSGSGTDFTLTISGLQPEDFATYYCQQYNSYPRTFGQGTKVEIK |  | 11.2 nM and 10.3 nM and 10.5 nM and 11.1 nM
BEAT 2a5 CD206 arm (antibody, V domains shown) VH: EVQLVQSGAEVKKPGESLRISCKGSGDSFTTYWIGWVRQMPGKGLEWMGIIYPGDSDTIYSPSFQGQVTISADKSISTAYLQWSSLKASDTAMYYCTRGDRGVDYWGQGTLVTVSS VL: DIQMTQSPSSLSASVGDRVTITCRASQGISRWLAWYQQKPEKAPKSLIYAASSLQSGVPSRFSGSGSGTDFTLTISGLQPEDFATYYCQQYNSYPRTFGQGTKVEIK |  | 30.1 nM and 32.7 nM
